Target: T1, chemokine CXCR2 (IL-8Rb) (Homo sapiens, UniProt P25025)
T1 sequence (P25025 1-360): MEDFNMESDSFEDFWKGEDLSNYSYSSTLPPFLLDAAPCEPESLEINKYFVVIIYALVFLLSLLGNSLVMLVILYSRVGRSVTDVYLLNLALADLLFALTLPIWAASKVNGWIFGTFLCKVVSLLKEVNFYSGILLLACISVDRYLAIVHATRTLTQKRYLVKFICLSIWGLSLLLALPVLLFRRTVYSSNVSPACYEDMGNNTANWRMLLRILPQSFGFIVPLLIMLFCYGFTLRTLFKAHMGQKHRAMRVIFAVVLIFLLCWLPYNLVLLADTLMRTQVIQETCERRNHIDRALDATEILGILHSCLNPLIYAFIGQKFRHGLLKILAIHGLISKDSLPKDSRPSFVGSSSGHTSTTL
Test: Competitive radioligand binding screen, IL-8/IL-8RB
Settings: 10 μM peptide

YGRKKRRQRRRKLSSIESDV [Tat-NR2B9c, reference compound]
inhibition of IL-8/IL-8RB: 80%
